# B1: recombinant human antibody NI-105.6C5 (germlined) (antibody, human IgG1, V domains shown)
# VH: QVQLVESGGGVVQPGRSLRVSCAASGFTFSSYDMHWVRQAPGKGLEWVAVIWFDGSNEFYADSVKGRFTISRDNSKNTLFLQMNSLRAEDTAVYYCARDLGASVTTSNAENFHHWGQGTLVTVSS
# VL: SYELTQPPSVSVSPGQTARITCSGDALPKRYVYWYQQKSGQAPVLVIYEDSKRPSGIPETFSGSSSGTMATLTISGAQVEDEADYYCYSTDSNGHHWVFGGGTKLTVL
# B2: recombinant human antibody NI-105.24B2 (antibody, V domains shown)
# VH: EVQLVQSGAEVKKPGASVKVSCKASGYTFVNYIIHWVRQAPGQGLEWMGIINPNGGNTSYAEKFQARVTLTSDTSTSTVYMDLSSLTSEDTAVYYCAVLSPSNPWGQGTTVTVSS
# VL: SYVLTQPPSVSVSPGQTAGITCSGDALPKQFVYWYQKKPGQAPVLLIYKDTERPSRIPERFSGSTSGTTVALTINGVQAEDEADYYCQSADRSGALWVFGGGTKLTVL
# notes: Human antibody described in US 2012/0087861; used as cloned
# B3: recombinant human antibody NI-105.4A3 (antibody, V domains shown)
# VH: EVQLVETGGGAVQPGGSLRLSCAASGFTFSDYAMHWVRQAPGKGLQWVAVISYEGTYKYYADSVKGRFTISRDNSKNTLNLQMSSLRVEDTAVYFCVKARAFASGQRSTSTVPDYWGQGTLVTVSS
# VL: SYELTQPPSVSVSPGQTARITCSGDALPKKYAYWYQQKSGQAPVLVIYEDNKRPSGIPERFSGSSSGTVATLTISGAQVDDEADYYCYSTDISGDLRVFGGGTKLTVL
# notes: as for B2
# B4: chimeric NI-105.4E4(N30Q) (ch4E4(N30Q)), mouse IgG2a/lambda (antibody, V domains shown)
# VH: EVQLVESGGGLVQPGGSLKLSCAASGFNFQISAIHWVRQASGKGLEWVGRIRSKSHNYATLYAASLKGRFTLSRDDSRNTAYLQMSSLQTEDMAVYYCTVLSANYDTFDYWGQGTLVTVSS
# VL: SYELTQPPSVSVSPGQTARISCFGDTLPKQYTYWYQQKPGQAPVLVIYKDTERPSGIPERFSGSSSGTTVTLTISGVQAEDEADYYCLSADNSATWVFGGGTKVTVLG
# notes: Only the heavy chain of ch4E4 was changed (Asn-30 to Gln)
# How the values were obtained:
# [1] = target: T1, PHFTau (paired helical filaments containing pathologically phosphorylated tau filaments, extracted from AD … (human, UniProt P10636-8 1-441, limits assumed, pathologically phosphorylated (sites of the preparation not listed), aggregated filaments)); assay: direct ELISA on coated PHFTau
# T1 construct: Brain extract, not a single defined isoform; also called human PHF tau; pathologically modified PHFTau
# [2] = target: T2, normal tau in wild type mouse brain (Wt) (mouse, UniProt P10637-2 1-430, limits assumed); assay: immunohistochemistry on brain tissue
# T2 construct: Control tissue in immunohistochemistry
# [3] = target: T3, recombinant human tau, isoform Tau-F of 441 aa (hTau40) (human, UniProt P10636 1-758); assay: direct ELISA on coated recombinant tau (rTau)
# T3 construct: Bought from rPeptide (Bogart, GA, USA); coated on ELISA plates, blotted, or spotted as overlapping peptides; also called full-length tau; rTau
# [4] = target: T3, recombinant human tau, isoform Tau-F of …; assay: direct ELISA, hTau40 coated at 3 ug/ml
# Text: (§1) The EC₅₀ values were estimated by a non-linear regression using GraphPad Prism software.
# [5] = target: T3, recombinant human tau, isoform Tau-F of …; assay: direct ELISA, hTau40 coated at 1 ug/ml
# Procedure: as §1
# ELISA plates were coated with recombinant human tau (hTau40, 1 ug/ml), PHFTau (1:100) and control preparation (1:100), and incubated with varying antibody concentrations.
# [6] = target: T3, recombinant human tau, isoform Tau-F of …; assay: binding of CHO-produced antibody to recombinant tau; format not stated
# T3 sequence (P10636 other isoform, or with tags, fused parts or gaps limits assumed): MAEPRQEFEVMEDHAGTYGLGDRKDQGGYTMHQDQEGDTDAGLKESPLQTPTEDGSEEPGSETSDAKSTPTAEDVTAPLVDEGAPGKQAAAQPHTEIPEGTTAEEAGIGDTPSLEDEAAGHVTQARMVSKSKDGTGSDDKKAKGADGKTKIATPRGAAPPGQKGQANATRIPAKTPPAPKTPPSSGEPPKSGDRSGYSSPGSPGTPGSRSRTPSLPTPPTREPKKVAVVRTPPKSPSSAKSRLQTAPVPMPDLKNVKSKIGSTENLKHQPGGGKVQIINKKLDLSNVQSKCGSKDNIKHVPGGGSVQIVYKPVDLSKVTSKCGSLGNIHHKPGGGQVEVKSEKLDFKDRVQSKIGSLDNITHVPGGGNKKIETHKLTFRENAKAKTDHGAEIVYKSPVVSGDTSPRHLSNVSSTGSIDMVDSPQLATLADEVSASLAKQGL
# T1 sequence (P10636 other isoform, or with tags, fused parts or gaps limits assumed): as above
# T2 sequence (P10637 other isoform, or with tags, fused parts or gaps limits assumed): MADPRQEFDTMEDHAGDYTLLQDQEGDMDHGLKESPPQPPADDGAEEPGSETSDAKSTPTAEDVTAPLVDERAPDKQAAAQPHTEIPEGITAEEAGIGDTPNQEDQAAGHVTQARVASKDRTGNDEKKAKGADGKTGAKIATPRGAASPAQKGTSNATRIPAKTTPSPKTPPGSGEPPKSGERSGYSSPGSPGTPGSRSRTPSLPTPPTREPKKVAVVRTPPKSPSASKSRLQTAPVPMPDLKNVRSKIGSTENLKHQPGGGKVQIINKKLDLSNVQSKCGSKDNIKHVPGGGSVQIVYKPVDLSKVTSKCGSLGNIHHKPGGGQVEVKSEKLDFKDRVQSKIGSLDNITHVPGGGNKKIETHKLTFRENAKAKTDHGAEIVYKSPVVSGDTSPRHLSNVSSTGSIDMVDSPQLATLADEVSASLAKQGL
binder,measurement,setting,value
B1,EC50,[1],0.04 nM
same,binding result,[2],no binding
same,EC50,[3],0.033 nM
B2,EC50,[4],6.6 nM
B3,EC50,[5],1.4 nM
B4,"fold higher apparent binding affinity relative to the original, glycosylated antibody (ch4E4)",[6],~4 fold

# From patent publication US20200262895A1 (Biogen, published 2020)
